Laboratory results published in the nanobody polyreactivity screen of Harvey et al. (2022).

Experiment: yeast display, Sf9 membrane polyspecificity reagent, FACS + sequencing; frameworks hold sequencing errors
How it was run: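 Using colony PCR, genes from sorted yeast display clones were amplified, then sequenced on MiSeq at 2 × 250 and filtered by CDR length. The clones had been stained with 10% biotinylated, detergent-solubilized Sf9 membrane reagent for 1 hour at 4 °C and sorted by FACS into low and high (top ~1%) gates on anti-HA and streptavidin fluorescence. Polyreactivity labels come from the gate of origin.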

Row | Sequence | polyreactivity (PSR sort gate)
1 | QFQLVESGGGLVQAGGSLRLSCAASGGIFDTNAMGWYRQATGKDRELVAAITVRGGSTYYADSVKGRFTISRDNAKNTVYLQMNSLKPEDTAVYYCATRSPKRAAVRYNYWGQGTQVTVSS | high polyreactivity
2 | QVQLVESGGGLVQAGGSLRLSCAASGRIFCVNAMGWYRQAPGKERELVAAINVSGGITYYADSVKGRFTISRDNAKNTVYLQMKSLKPEDTAVYYCAAVHWTWYTYYGPDYDYWGQGTQVTVSS | low polyreactivity
3 | QVQLVESGGGLVQAGGSLRLSCAASGFTFAGYAMGWYRQAPGKERELVAGIRSSGARTYYADSAKGRFTISRDNAKNTVYFKMNSLKPEDTADYYFAKTDGFYRGYGYWGQGTKVTVSS | low polyreactivity
4 | QVQLVESGGGLVQAGGSLRLTCDASGGIFAVNVMGWYRQAPWKERELVAAITSTGSTYYADSVKGRFTISRDNAKNTVYLQMNSLTPEDTAVYYCAADYVYYDSYDDTVFGYDYWGQGTQVTVSS | high polyreactivity
5 | QVQLVESGGGLVQAGGSLRLSCAASGTIFRWYAMGWYRQARGKEREFVAAITSSGGSTYYADSVKGRFTISRDNAKNTVYLQMNSLKPEDTAVYYCAARGWTANYEMDHWGQGTQVTVSS | high polyreactivity
6 | QVQLVESGGGLVQAGGSLRLSCAASGRIFPPYAMGWYRQAPGKERELVAAISCGGSRTYYADSVKGRFTISRDNAKNTVYLQMNSLKPEDTAVYYCAAKNYLAKSGDYWGQGTQVTVSS | high polyreactivity
7 | QVQLVESGGGLVQAGGSLRLSCAASGSTFQYYARGWYRQAPGKETELVAAISDRDGGTFYADSVKGRFTISRDNAKNTVYLQMNSLKPEDTAVYYCATDAVGFRLDDNGYWGQGTQVTVSS | low polyreactivity
8 | QVQLVESGGGLVQAGGSLRLSCAASGSIFVGNGMGWYRQAPGKERELVAAITFRSGSTYYADSVKGRFTISRDNAKNTVYFQMISMKPEDTAVSYCAADEYYQVYAYDYCGQGTQVTVSS | low polyreactivity
9 | QVQLVESGGGLVQAAGSLRLSCAASGFTIAHYAMGRYSHAPGKERELVAGISRSGGSTYYADSVKGRFTISRDNAKNTVYLQMNILKPEDTAVYYCATVTYLKRVRYQSGYDSWGQGTQVTVSS | low polyreactivity
10 | HVQLVESGGVLVQAGGSLRLSCAASGRIFRQNTMGWYRQAPGKEREIDATISWRGTRTNYADSVKGRFTISRDNAKNTVYLQMNSLKPEDTAVYYCNAQSWAYTLRTSLYDYWGQGTQVTVSS | high polyreactivity
11 | QVQLVESGGGLVQAGGSLRLSCAASGSTFKYYAMGWYRQAPGKERELVASITRTGSSTYYADSVKGRFTISRDNAKNTVYLQMNSRKPEDTAVYYCNTGPHSVWWHYGYDYWGQGTQVTVSS | high polyreactivity
12 | QVQLVESGGGLVQAGGSLRLSCAASGLTFLWYAMGWYRQAPGKERELVAAITSGGRTKYADSVKGRFTISRDNAKNTVYLQMNSLKPEDTAVYYCAAYTQWWGYDYWGQGTLVTVSS | high polyreactivity
13 | QVQLVESGGGLVQAGGSLRLSCAASGGTFGYYAMGWYIQAPGTERELVAAISWSGGSTYYADSVKGRFTISRDNAKNTVYLQMNSLKAEDTAVYYCNAVTRFGYVKFDYWGQGTQVTVSS | high polyreactivity
14 | QVQLVESGGGLVQAGGSLRLTCAASGSTFTGYAMGWSIQAPGKERELVAGITGSGGSTYYADSVKGRFTISRDNAKNTVYLQMNSLKPEDTAVYYCNAVHWGGTYWGLDYWGQGTQVTVSS | low polyreactivity
15 | QVQLVESRGGIVQAGGSLRLSCAASGSIFEQYAMGLYRQAPGKERELVAAISKRGTSTNYADSVKGRVTISRDNAKNTVYLQMNSLKPEDTAVYYCNADSRHRRNYDYWGQGTHVTVSS | high polyreactivity
16 | QVQLVDSGGGLVQAGGRLRLSCAPSGSIIIDNAMGWYRQAPGKERELVAAISSSGGSTHYADSVKGRFTISRDNAKNTVYLQMNSLKPEDTAVYYCAAKRGWRGGYYWGQGTQVTVSS | high polyreactivity

Row | Sequence | polyreactivity (PSR sort gate)
17 | QVQLVESGGGLVQAGGSLRLSCAASGSTYTGYTMGWYRQAPGKERELVAAITYRGGSTYYADSVKGRITISRDNAKNTVYLQMNSLKREDTEVYYCAARSFFIMYYWGQGTQVTVSS | low polyreactivity
18 | QVQLVESGGGLVQAGGSLRLSCAASGLTLTHYAMGWYRQAPGKERELVAAISSSGGRTYYADSVKGRFTISRDNAKNTVYLQMNSLKPEDTAVYYCAARVIASRGRYGYWGQGTQVTVSS | high polyreactivity
19 | QVQLVESGGGLVQAGGSLRLSCAASGFIFARYAMGWYRQAPGKERELVAAISSGGRTYFADSVKGRFTISRDNAKNTVYLQMNSLKPEDTAVYYCAKRPTNGYGTFDYWGQGTQVTVSS | high polyreactivity
20 | QDQLVESGGGIVQAGGSLRLSCAASGFIFSTNAMGWYRQAPGKERELVAAITGRGTNTYYADSVKGRFTISRDNAKNTVYLQMNSLKPEDTAVYYCAADNKDSEDDYWGQGTQVTVSS | high polyreactivity
21 | QVQLVESGGGLVQAGGSLRLSCAASGLTFRPYTMGWYRQAPAKERELVAAISARGGRTYYADSVKGRFTISRDNAKNTVYLQMNSLKPEDTAVYYCATLETTGVNYWGQGTQVTVSS | high polyreactivity
22 | QVQLVESGGGLVQAGGSLRLSCAASGNIFKGHVMGSYRKAPGKERELVAAISRSGGYTYYAVSVKGRFTISRDNAKNTVYLQMNSLKPADTAVYYCAAGRRLVRVVGGDYYGRYVYWGQGTQVTLSS | high polyreactivity
23 | QVQLVESGGGLVQAGGSLRLSCAASGRIFGLNAMGRYRQAPGKERELVAAISERDGSTYYADSVKGRFTISRDNAKNTVYLQMNSLKPEDTAVYYCAAEKPVHYVRGVHYDYWGQGTQVTVSS | low polyreactivity
24 | QVQRVESGGGLVQAGVSLRLSCAASGITFVPYAMGWYRQAPGKERELVAAISSSGGSTYYADSVKGRFTISRDNAKNTVYLQMNSLKPEDTAVYFCNVPTHSYIGMDYWGQGTQVTVSS | low polyreactivity
25 | QVQLVESGGGLVQAGGSLRLSCAASGRTFRLYAMGWYRQAPGKERELVAAITRGGRTNYADSVKGRFTISRDNAKNTVYLQMYSLKPEDTAVYYCARDFVAYGDDYWGQGTQVTVSS | low polyreactivity
26 | QVQLQESGGGLVQAGGSLLSCAASGTISYYREMGCYRQAPGKERELVAGIGVGTITYYADSVKGRFTISRDNAKNTVYLQLNSLKPEDNAVYYCAAHIDGNDSHAYWGQGTQVTVSS | low polyreactivity
27 | QVQLVESGGGLVQAGGSLRLSCAASGSTFYHNVKGWYRQAPWKERELVASIDTGDSTNYADTVKGRFSISRDNAKKTVYLQMNSLKPEDTAVYYCNADSYPALNKRGYEYWGQGTQVTVSS | low polyreactivity
28 | QVQLVESGGGLVQAGGSLRLSCAASGFTFRSNVMGWYRQATGKERELVAAISWSGGSTYYADSVKGRFTISRDNAKNNVYLQMNSLKPEDTAVYYCATVQVVGPWSYRKLDYWGQGTQVTVSS | high polyreactivity
29 | QVQLVESGGGLVQAGGSLRLSCAASGFTFYYYAMGWSRQAPGKERELVASISKRGGTYYADSVKGRFTISRDNAKNTVYLQMNSLKPEDTAVYYCAAGIPRQAYKFYWGQGTQVTVSS | high polyreactivity
30 | QVQLVESGGGLVQAGGSLRLSCAASGSIFYGYAMGWYRQAPGKERELVAAISRGGSTYADSVKGRFTISRDNAKNTVYLQMNSLKPEDTAVYYCARRYWNCPLRGWYGYWGQGTQVTVSS | high polyreactivity
31 | QVQLVESGGGLVQAGGSLRLSCAASGRLFRHNAMGWYRQAPGKERELVAVISRSTGSTYYADSVKGRFTISRYNAKNTVYLQMNSLKPEDTAVYYCDAKYGSGQRYDYWGQGTQVTVSS | high polyreactivity
32 | QVQLVESGGGLFQAGGSLRLSCAASGSTFVANAMGWYRQAPGKERELVAAISSSGGSTYYADSVKGRFTISRDIAKNTVYLQMNSLKHDDTAVYYCNARSISRKKGYPPQRRDGYWGQGTQVTVSS | high polyreactivity
